Numbering of substitutions follows the chain as printed.
How the values were obtained:
[1] = molecular target: recombinant human VEGF (hVEGF-165) (human) (UniProt P15692); experiment: Proteon SPR estimate, mAb-dAb in transfection supernatant
[2] = molecular target: human HGFδ5 (human) (UniProt P14210); experiment: Biacore SPR, antibody captured on anti-human IgG, HGF as analyte, 37 C, 1:1 model
[3] = molecular target: T1, Human HGFv1 (human, UniProt P14210 32-728); experiment: as above
T1 construct: Biotinylated in the bridging ELISA; also called HGF (fl); HGF full length
T1 sequence (P14210 32-728 limits assumed, form in doubt): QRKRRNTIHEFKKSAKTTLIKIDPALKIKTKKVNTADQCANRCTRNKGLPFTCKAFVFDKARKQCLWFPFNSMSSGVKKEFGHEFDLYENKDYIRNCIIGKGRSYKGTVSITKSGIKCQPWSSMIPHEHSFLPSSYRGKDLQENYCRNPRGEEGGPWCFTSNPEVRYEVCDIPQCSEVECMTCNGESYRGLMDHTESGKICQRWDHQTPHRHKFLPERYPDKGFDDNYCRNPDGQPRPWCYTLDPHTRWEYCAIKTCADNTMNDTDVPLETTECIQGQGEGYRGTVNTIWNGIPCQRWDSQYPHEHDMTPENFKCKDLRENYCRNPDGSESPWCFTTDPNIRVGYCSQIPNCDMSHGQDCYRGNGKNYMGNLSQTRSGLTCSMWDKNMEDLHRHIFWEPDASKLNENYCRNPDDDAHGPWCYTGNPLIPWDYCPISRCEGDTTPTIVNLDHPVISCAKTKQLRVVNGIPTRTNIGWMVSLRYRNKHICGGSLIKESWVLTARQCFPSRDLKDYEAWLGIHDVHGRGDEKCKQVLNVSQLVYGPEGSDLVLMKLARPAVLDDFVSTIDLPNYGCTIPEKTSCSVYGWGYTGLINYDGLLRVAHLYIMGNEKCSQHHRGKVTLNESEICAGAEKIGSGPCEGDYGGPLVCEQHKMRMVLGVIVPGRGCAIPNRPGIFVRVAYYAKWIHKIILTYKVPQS

human HGFδ5 (human), sequence (P14210 other isoform, or with tags, fused parts or gaps mutant): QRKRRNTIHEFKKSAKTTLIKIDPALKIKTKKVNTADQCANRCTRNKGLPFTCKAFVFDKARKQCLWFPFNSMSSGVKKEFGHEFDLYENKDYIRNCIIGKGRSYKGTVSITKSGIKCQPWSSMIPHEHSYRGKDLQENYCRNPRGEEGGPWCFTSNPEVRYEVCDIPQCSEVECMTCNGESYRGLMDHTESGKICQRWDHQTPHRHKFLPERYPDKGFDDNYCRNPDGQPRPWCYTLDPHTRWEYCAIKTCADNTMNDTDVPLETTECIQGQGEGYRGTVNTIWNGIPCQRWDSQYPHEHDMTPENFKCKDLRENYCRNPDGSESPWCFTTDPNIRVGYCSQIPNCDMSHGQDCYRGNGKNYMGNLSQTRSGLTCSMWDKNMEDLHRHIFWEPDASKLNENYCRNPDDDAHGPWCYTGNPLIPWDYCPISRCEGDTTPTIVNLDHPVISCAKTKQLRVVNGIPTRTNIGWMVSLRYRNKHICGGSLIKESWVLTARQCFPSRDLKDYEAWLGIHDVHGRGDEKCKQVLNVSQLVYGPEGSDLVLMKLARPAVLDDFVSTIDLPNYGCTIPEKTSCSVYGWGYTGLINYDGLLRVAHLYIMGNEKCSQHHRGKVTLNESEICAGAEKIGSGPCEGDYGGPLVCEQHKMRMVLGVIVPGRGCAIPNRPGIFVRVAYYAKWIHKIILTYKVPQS

B1: DT02-K-044-077 in Pascolizumab-(GSTVAAPS)3-T mAb-dAb format (bispecific antibody, part only; not given: Pascolizumab chains and linker, not shown: another chain or arm of the molecule; small tags and cut ends)
dAb: DIQMTQSPSSLSASVGDRVTITCRASQWIGPELAWYQQKPGKAPKLLIYHGSILQSGVPSRFSGSGSGTDFTLTISSLQPEDFATYYCQQYMYYPHTFGQGTKVEIKR
Kd [1]: 40 pM

B2: DT02-K-044-229 in Pascolizumab-(GSTVAAPS)3-T mAb-dAb format (bispecific antibody, part only; not given: pascolizumab chains and linker, not shown: another chain or arm of the molecule; small tags and cut ends)
dAb: B1 dAb with A34S, H96A
Kd [1]: 2 pM

B3: DT02-K-044-230 in Pascolizumab-(GSTVAAPS)3-T mAb-dAb format (bispecific antibody, part only; not given: pascolizumab chains and linker, not shown: another chain or arm of the molecule; small tags and cut ends)
dAb: B1 dAb with A34S, H96C
Kd [1]: 23 pM

B4: DT02-K-044-238 in Pascolizumab-(GSTVAAPS)3-T mAb-dAb format (bispecific antibody, part only; not given: Pascolizumab chains and linker, not shown: another chain or arm of the molecule; small tags and cut ends)
dAb: B1 dAb with A34S, H96M
Kd [1]: 44 pM

B5: DT02-K-044-093 in Pascolizumab-(GSTVAAPS)3-T mAb-dAb format (bispecific antibody, part only; not given: Pascolizumab chains and linker, not shown: another chain or arm of the molecule; large carriers; small tags and cut ends)
dAb: B1 dAb with A34V
Kd [1]: 34 pM

B6: DT02-K-044-092 in Pascolizumab-(GSTVAAPS)3-T mAb-dAb format (bispecific antibody, part only; not given: pascolizumab chains and linker, not shown: another chain or arm of the molecule; large carriers; small tags and cut ends)
dAb: B1 dAb with A34T
Kd [1]: 3 pM

B7: DT02-K-044-247 in Pascolizumab-(GSTVAAPS)3-T mAb-dAb format (bispecific antibody, part only; not given: pascolizumab chains and linker, not shown: another chain or arm of the molecule; large carriers; small tags and cut ends)
dAb: B1 dAb with A34S, H96Y
Kd [1]: 18 pM

B8: DT02-K-044-239 in Pascolizumab-(GSTVAAPS)3-T mAb-dAb format (bispecific antibody, part only; not given: Pascolizumab chains and linker, not shown: another chain or arm of the molecule; large carriers; small tags and cut ends)
dAb: B1 dAb with A34S, H96N
Kd [1]: 13 pM

B9: DT02-K-044-232 in Pascolizumab-(GSTVAAPS)3-T mAb-dAb format (bispecific antibody, part only; not given: pascolizumab chains and linker, not shown: another chain or arm of the molecule; small tags and cut ends)
dAb: B1 dAb with A34S, H96E
Kd [1]: 4 pM

B10: DT02-K-044-090 in Pascolizumab-(GSTVAAPS)3-T mAb-dAb format (bispecific antibody, part only; not given: pascolizumab chains and linker, not shown: another chain or arm of the molecule; large carriers; small tags and cut ends)
dAb: B1 dAb with A34Q
Kd [1]: 20 pM

B11: DT02-K-044-235 in Pascolizumab-(GSTVAAPS)3-T mAb-dAb format (bispecific antibody, part only; not given: pascolizumab chains and linker, not shown: another chain or arm of the molecule; small tags and cut ends)
dAb: B1 dAb with A34S, H96I
Kd [1]: 4 pM

B12: DT02-K-044-240 in Pascolizumab-(GSTVAAPS)3-T mAb-dAb format (bispecific antibody, part only; not given: pascolizumab chains and linker, not shown: another chain or arm of the molecule; large carriers; small tags and cut ends)
dAb: B1 dAb with A34S, H96P
Kd [1]: 43 pM

B13: DT02-K-044-083 in Pascolizumab-(GSTVAAPS)3-T mAb-dAb format (bispecific antibody, part only; not given: pascolizumab heavy and light chains, not shown: another chain or arm of the molecule; small tags and cut ends)
dAb: B1 dAb with A34H
Kd [1]: 49 pM

B14: DT02-K-044-095 in Pascolizumab-(GSTVAAPS)3-T mAb-dAb format (bispecific antibody, part only; not given: pascolizumab chains and linker, not shown: another chain or arm of the molecule; large carriers; small tags and cut ends)
dAb: B1 dAb with A34Y
Kd [1]: 6 pM

B15: DT02-K-044-087 in Pascolizumab-(GSTVAAPS)3-T mAb-dAb format (bispecific antibody, part only; not given: pascolizumab chains and linker, not shown: another chain or arm of the molecule; large carriers; small tags and cut ends)
dAb: B1 dAb with A34M
Kd [1]: 5 pM

B16: DT02-K-044-088 in Pascolizumab-(GSTVAAPS)3-T mAb-dAb format (bispecific antibody, part only; not given: pascolizumab chains and linker, not shown: another chain or arm of the molecule; large carriers; small tags and cut ends)
dAb: B1 dAb with A34N
Kd [1]: 52 pM

B17: BPC 1856, anti-HGF S260116C12VL1 Chimera (antibody, V domains shown)
VH: QIQLRQSGAGLMKPGASVKLSCKATGYTFTGYWIEWVKQRPGHDLEWIGEILPGSGTTNYNEKFKGKATFTADTSSNTAYMQLSSLTTEDSAIYYCARGGYYYGSSYDSWGQGTLVTVSS
VL: DIVLTQSPASLAVSLGQRATISCRASESVSIHGTHLMHWYQQKPGQPPKLLIYAASNLESGVPARFSGSGSETDFTLNIHPVEEEDAATYFCQQSIEDPYTFGGGTKLEIKR
notes: also called chimeric mAb BPC1856
Kd [2]: 42 pM
koff [2]: 1.78e-05 s⁻¹
kon [2]: 423000 M⁻¹ s⁻¹
Kd [3]: 34 pM
koff [3]: 1.49e-05 s⁻¹
kon [3]: 434000 M⁻¹ s⁻¹

Source: US20130236467A1 (published 2013)
